Experimental data: patent US20230101266A1 (GENEQUANTUM HEALTHCARE SUZHOU, published 2023)

T1: recombinant extracellular domain of human TROP2 (human, UniProt P09758 27-274)
T1 construct: extracellular domain; Commercial protein (Acrobiosystem), used as the analyte in SPR; also called Trophoblast antigen 2; GA733-1
T1 sequence (looked up): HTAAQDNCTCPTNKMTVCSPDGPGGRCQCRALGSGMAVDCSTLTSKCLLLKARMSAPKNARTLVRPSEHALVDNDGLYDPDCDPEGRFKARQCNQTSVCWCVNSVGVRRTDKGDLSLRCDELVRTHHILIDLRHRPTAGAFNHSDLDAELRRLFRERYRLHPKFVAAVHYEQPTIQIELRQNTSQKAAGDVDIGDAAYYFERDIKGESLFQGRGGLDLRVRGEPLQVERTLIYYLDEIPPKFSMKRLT

B1: Ab0054 (antibody, human IgG1, kappa, V domains shown)
VH: QVQLVQSGAEVKKPGSSVKVSCKASGYRFTDYVINWVRQAPGQGLEWMGQIYPGSDSFHYNQKFQGRATLTADKSTNTAYMELSSLRSEDTAVYYCARFFEGLAYWGQGTLVTVSS
VL: DIQMTQSPSSLSASVGDRVTITCKASQGINNYLSWYQQKPGKAPKSLIYRANRLVDGVPSRFSGSGSGTDFTLTISSLQPEDFATYYCLQYDEFPLTFGGGTKVEIKR
notes: Humanized IgG; also called Ab0001-huV5-VL / Ab0001-huV4-VH
B2: Ab0062 (antibody, human IgG1, kappa, V domains shown)
VH: QVQLVQSGAEVKKPGSSVKVSCKASGYRFTDYVINWVRQAPGQGLEWMGQIYPGSDAFHYNQKFQGRATLTADKSTNTAYMELSSLRSEDTAVYYCARFFEGLAYWGQGTLVTVSS
VL: DIQMTQSPSSLSASVGDRVTITCKASQGINNYLSWYQQKPGKAPKSLIYRANRLVDGVPSRFSGSGSGTDFTLTISSLQPEDFATYYCLQYDEFPLTFGGGTKVEIKR
notes: Humanized IgG; also called Ab062; Ab0001-huV5-VL / Ab0001-huV6-VH
B3: Ab0061 (antibody, human IgG1, kappa, V domains shown)
VH: QVQLVQSGAEVKKPGSSVKVSCKASGYRFTDYVINWVRQAPGQGLEWMGQIYPGSDTFHYNQKFQGRATLTADKSTNTAYMELSSLRSEDTAVYYCARFFEGLAYWGQGTLVTVSS
VL: DIQMTQSPSSLSASVGDRVTITCKASQGINNYLSWYQQKPGKAPKSLIYRANRLVDGVPSRFSGSGSGTDFTLTISSLQPEDFATYYCLQYDEFPLTFGGGTKVEIKR
notes: Humanized IgG; also called Ab0001-huV5-VL / Ab0001-huV5-VH
B4: Ab0053 (antibody, human IgG1, kappa, V domains shown)
VH: QVQLVQSGAEVKKPGSSVKVSCKASGYRFTDYVINWVRQAPGQGLEWMGQIYPGSDSFHYNQKFQGRATLTADKSTNTAYMELSSLRSEDTAVYYCARFFEGLAYWGQGTLVTVSS
VL: DIQMTQSPSSLSASVGDRVTITCKASQGINNYLSWYQQKPGKAPKSLIYRANRLVDGVPSRFSGSGSGTDYTLTISSLQPEDFATYYCLQYDEFPLTFGGGTKVEIKR
notes: Humanized IgG; also called Ab0001-huV4-VL / Ab0001-huV4-VH
B5: Ab0063 (antibody, human IgG1, kappa, V domains shown)
VH: QVQLVQSGAEVKKPGSSVKVSCKASGYRFTDYVINWVRQAPGQGLEWMGQIYPGSDSFHYNQKFQGRATLTADKSTNTAYMELSSLRSEDTAVYYCARFFEGLAYWGQGTLVTVSS
VL: DIQMTQSPSSLSASVGDRVTITCKASQGINNYLSWYQQKPGKAPKSLIYRANRLVSGVPSRFSGSGSGTDFTLTISSLQPEDFATYYCLQYDEFPLTFGGGTKVEIKR
notes: Humanized IgG; also called Ab0001-huV8-VL / Ab0001-huV4-VH
B6: Ab0064 (antibody, human IgG1, kappa, V domains shown)
VH: QVQLVQSGAEVKKPGSSVKVSCKASGYRFTDYVINWVRQAPGQGLEWMGQIYPGSDTFHYNQKFQGRATLTADKSTNTAYMELSSLRSEDTAVYYCARFFEGLAYWGQGTLVTVSS
VL: DIQMTQSPSSLSASVGDRVTITCKASQGINNYLSWYQQKPGKAPKSLIYRANRLVSGVPSRFSGSGSGTDFTLTISSLQPEDFATYYCLQYDEFPLTFGGGTKVEIKR
notes: Humanized IgG; also called Ab0001-huV8-VL / Ab0001-huV5-VH
B7: Ab0052 (antibody, human IgG1, kappa, V domains shown)
VH: QVQLVQSGAEVKKPGSSVKVSCKASGYRFTDYVINWVRQAPGQGLEWMGQIYPGSDSFHYNQKFQGRATLTADKSTNTAYMELSSLRSEDTAVYYCARFFEGLAYWGQGTLVTVSS
VL: DIQMTQSPSSLSASVGDRVTITCKASQGINNYLSWYQQKPGKAPKSLIYRANRLVDGVPSRFSGSGSGQDYTLTISSLQPEDFATYYCLQYDEFPLTFGGGTKVEIKR
notes: Humanized IgG; also called Ab0001-huV3-VL / Ab0001-huV4-VH

The binders below were run against T1, recombinant extracellular domain of … (assay: SPR, Biacore 8K, antibody captured on Protein A chip, TROP2 ECD as analyte, 25 C, 1:1 model).
Description: Binding kinetics and affinity analysis are performed. Surface Plasmon Resonance (SPR) analysis is performed on a Biacore 8K (GE healthcare) with a Sensor Chip Protein A (GE healthcare) following manufacturer's instructions. All measurements are performed at 25° C. in the HBS-EP+ buffer (10 mM HEPES, pH 7.4, 150 mM NaCl, 3 mM EDTA, and 0.05% surfactant P20). About 110-140 RU (Resonance unit) of each of the purified antibodies is captured on flow cells 2, 4, 6, 8, 10, 12, 14, 16 (i.e., the reaction surface) of the sensor chip, respectively. Flow cells 1, 3, 5, 7, 9, 11, 13 and 15 are treated with the HBS-EP+ buffer to serve as reference surfaces.
Serial dilutions of the recombinant extracellular domain of human TROP2 (i.e., the analyte) (Acrobiosystem) (243, 81, 27, 9, 3, 1, 0.333, and 0.111 nM, respectively) are prepared in HBS-EP+ buffer. Capturing of the antibodies is followed by a three-minute injection (association phase) of serial dilutions of TROP2 at a flow rate of 30 μL/min and ten minutes of buffer flow (dissociation phase). The chip surface is regenerated by two pulses of 30-second injection of 10 mM Glycine-HCl pH 1.5 at a flow rate of 50 μL/min. The collected data are processed on a Biacore 8K Evaluation software using methods known in the art, comprising the following steps: (1) setting the response on the y-axis and the start of the injection on the x-axis to zero, (2) performing double referencing by firstly subtracting the reference surface data from the reaction surface data to get the analyte injection curves, and then subtracting the buffer injection curves from the analyte injection curves, and (3) performing the kinetic analysis using the 1:1 binding model with a global fit. The result for each antibody is presented as Ka (on-rate), Kd (off-rate) and KD (affinity constant) (Table 3).
B1 was tested, and the Kd was 0.43 nM, the koff was 0.000416 s⁻¹ and the kon was 975000 M⁻¹ s⁻¹.
In the case of B2, the Kd is reported as 0.81 nM, the koff is reported as 0.000719 s⁻¹ and the kon is reported as 889000 M⁻¹ s⁻¹.
Binder B3 has a Kd of 0.62 nM, a koff of 0.000545 s⁻¹ and a kon of 874000 M⁻¹ s⁻¹.
For B4, the Kd was 0.32 nM, the koff was 0.000326 s⁻¹ and the kon was 1.01e+06 M⁻¹ s⁻¹.
With B5 the Kd was 0.46 nM, the koff was 0.000394 s⁻¹ and the kon was 862000 M⁻¹ s⁻¹.
Binder B6 has a Kd of 0.76 nM, a koff of 0.000547 s⁻¹ and a kon of 722000 M⁻¹ s⁻¹.
B7 showed a Kd of 0.31 nM, a koff of 0.000321 s⁻¹ and a kon of 1.03e+06 M⁻¹ s⁻¹.
